Measurements from US20220040297A1 (Chugai, published 2022).

Target: T1, CD3ε homodimer protein (human, UniProt P07766 23-126, limits assumed, sulfo-tag or biotin label in some ECL assays)
T1 construct: also called human CD3ε homodimer protein; CD3 (CD3ε)
Assay: SPR, CD3ε homodimer on chip;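 also: biacore SPR with antibody variants flowed as analyte over amine-coupled CD3ε homodimer on a CM chip, bound amount of each single-residue H chain variant over that of parent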
Method: An appropriate amount of CD3ε homodimer protein was immobilized onto Sensor chip CM4 (GE Healthcare Japan Corp.) by the amine coupling method. Then, the antibody having an appropriate concentration was injected thereto as an analyte and allowed to interact with the CD3ε homodimer protein on the sensor chip. Then, the sensor chip was regenerated by the injection of 10 mmol/L glycine-HCl (pH 1.5). The assay was conducted at 25° C., and HBS-EP+ (GE Healthcare Japan Corp.) was used as a running buffer. […] Each parameter was calculated using Biacore T200 Evaluation Software (GE Healthcare Japan Corp.).
Specifically, when the amount of the antibody comprising CE115HA000 bound was defined as X and the amount of the H chain one-amino acid altered form bound was defined as Y, a value of Z (ratio of amounts bound)=Y/X was used.

T1 sequence (P07766 23-126 limits assumed): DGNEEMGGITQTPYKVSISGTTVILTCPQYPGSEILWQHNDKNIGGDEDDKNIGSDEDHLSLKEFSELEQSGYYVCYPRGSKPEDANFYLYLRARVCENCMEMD

Binder | ratio of amounts bound vs CE115HA000
CE115HA000 S52cA (antibody, name in Kabat numbering, V domains shown) VH: QVQLVESGGGVVQPGRSLRLSCAASGFTFSNAWMHWVRQAPGKGLEWVAQIKAKANNYATYYAESVKGRFTISRDDSKNSLYLQMNSLKTEDTAVYYCRYVHYGAYYGVDAWGQGTTVTVSS VL: DIVMTQSPLSLPVTPGEPASISCRSSQSLVHSNRNTYLHWYQQKPGQAPRLLIYKVSNRFSGVPDRFSGSGSGTDFTLKISRVEAEDVGVYYCGQGTQVPYTFGQGTKLEIK | 0.96
CE115HA000 S52cK (antibody, name in Kabat numbering, V domains shown) VH: QVQLVESGGGVVQPGRSLRLSCAASGFTFSNAWMHWVRQAPGKGLEWVAQIKAKKNNYATYYAESVKGRFTISRDDSKNSLYLQMNSLKTEDTAVYYCRYVHYGAYYGVDAWGQGTTVTVSS VL: DIVMTQSPLSLPVTPGEPASISCRSSQSLVHSNRNTYLHWYQQKPGQAPRLLIYKVSNRFSGVPDRFSGSGSGTDFTLKISRVEAEDVGVYYCGQGTQVPYTFGQGTKLEIK | 1.19
CE115HA000 S52cG (antibody, name in Kabat numbering, V domains shown) VH: QVQLVESGGGVVQPGRSLRLSCAASGFTFSNAWMHWVRQAPGKGLEWVAQIKAKGNNYATYYAESVKGRFTISRDDSKNSLYLQMNSLKTEDTAVYYCRYVHYGAYYGVDAWGQGTTVTVSS VL: DIVMTQSPLSLPVTPGEPASISCRSSQSLVHSNRNTYLHWYQQKPGQAPRLLIYKVSNRFSGVPDRFSGSGSGTDFTLKISRVEAEDVGVYYCGQGTQVPYTFGQGTKLEIK | 0.97
CE115HA000 S62E (antibody, name in Kabat numbering, V domains shown) VH: QVQLVESGGGVVQPGRSLRLSCAASGFTFSNAWMHWVRQAPGKGLEWVAQIKAKSNNYATYYAEEVKGRFTISRDDSKNSLYLQMNSLKTEDTAVYYCRYVHYGAYYGVDAWGQGTTVTVSS VL: DIVMTQSPLSLPVTPGEPASISCRSSQSLVHSNRNTYLHWYQQKPGQAPRLLIYKVSNRFSGVPDRFSGSGSGTDFTLKISRVEAEDVGVYYCGQGTQVPYTFGQGTKLEIK | 0.92
CE115HA000 S52cL (antibody, name in Kabat numbering, V domains shown) VH: QVQLVESGGGVVQPGRSLRLSCAASGFTFSNAWMHWVRQAPGKGLEWVAQIKAKLNNYATYYAESVKGRFTISRDDSKNSLYLQMNSLKTEDTAVYYCRYVHYGAYYGVDAWGQGTTVTVSS VL: DIVMTQSPLSLPVTPGEPASISCRSSQSLVHSNRNTYLHWYQQKPGQAPRLLIYKVSNRFSGVPDRFSGSGSGTDFTLKISRVEAEDVGVYYCGQGTQVPYTFGQGTKLEIK | 0.98
CE115HA000 S52cF (antibody, name in Kabat numbering, V domains shown) VH: QVQLVESGGGVVQPGRSLRLSCAASGFTFSNAWMHWVRQAPGKGLEWVAQIKAKFNNYATYYAESVKGRFTISRDDSKNSLYLQMNSLKTEDTAVYYCRYVHYGAYYGVDAWGQGTTVTVSS VL: DIVMTQSPLSLPVTPGEPASISCRSSQSLVHSNRNTYLHWYQQKPGQAPRLLIYKVSNRFSGVPDRFSGSGSGTDFTLKISRVEAEDVGVYYCGQGTQVPYTFGQGTKLEIK | 1.13
CE115HA000 S52cV (antibody, name in Kabat numbering, V domains shown) VH: QVQLVESGGGVVQPGRSLRLSCAASGFTFSNAWMHWVRQAPGKGLEWVAQIKAKVNNYATYYAESVKGRFTISRDDSKNSLYLQMNSLKTEDTAVYYCRYVHYGAYYGVDAWGQGTTVTVSS VL: DIVMTQSPLSLPVTPGEPASISCRSSQSLVHSNRNTYLHWYQQKPGQAPRLLIYKVSNRFSGVPDRFSGSGSGTDFTLKISRVEAEDVGVYYCGQGTQVPYTFGQGTKLEIK | 0.93
CE115HA000 S52cD (antibody, name in Kabat numbering, V domains shown) VH: QVQLVESGGGVVQPGRSLRLSCAASGFTFSNAWMHWVRQAPGKGLEWVAQIKAKDNNYATYYAESVKGRFTISRDDSKNSLYLQMNSLKTEDTAVYYCRYVHYGAYYGVDAWGQGTTVTVSS VL: DIVMTQSPLSLPVTPGEPASISCRSSQSLVHSNRNTYLHWYQQKPGQAPRLLIYKVSNRFSGVPDRFSGSGSGTDFTLKISRVEAEDVGVYYCGQGTQVPYTFGQGTKLEIK | 0.6
CE115HA000 S52cQ (antibody, name in Kabat numbering, V domains shown) VH: QVQLVESGGGVVQPGRSLRLSCAASGFTFSNAWMHWVRQAPGKGLEWVAQIKAKQNNYATYYAESVKGRFTISRDDSKNSLYLQMNSLKTEDTAVYYCRYVHYGAYYGVDAWGQGTTVTVSS VL: DIVMTQSPLSLPVTPGEPASISCRSSQSLVHSNRNTYLHWYQQKPGQAPRLLIYKVSNRFSGVPDRFSGSGSGTDFTLKISRVEAEDVGVYYCGQGTQVPYTFGQGTKLEIK | 1.04
CE115HA000 S62D (antibody, name in Kabat numbering, V domains shown) VH: QVQLVESGGGVVQPGRSLRLSCAASGFTFSNAWMHWVRQAPGKGLEWVAQIKAKSNNYATYYAEDVKGRFTISRDDSKNSLYLQMNSLKTEDTAVYYCRYVHYGAYYGVDAWGQGTTVTVSS VL: DIVMTQSPLSLPVTPGEPASISCRSSQSLVHSNRNTYLHWYQQKPGQAPRLLIYKVSNRFSGVPDRFSGSGSGTDFTLKISRVEAEDVGVYYCGQGTQVPYTFGQGTKLEIK | 0.92

Next, values leading:

ratio of amounts bound vs CE115HA000 | Binder
1 | CE115HA000 S62P (antibody, name in Kabat numbering, V domains shown) VH: QVQLVESGGGVVQPGRSLRLSCAASGFTFSNAWMHWVRQAPGKGLEWVAQIKAKSNNYATYYAEPVKGRFTISRDDSKNSLYLQMNSLKTEDTAVYYCRYVHYGAYYGVDAWGQGTTVTVSS VL: DIVMTQSPLSLPVTPGEPASISCRSSQSLVHSNRNTYLHWYQQKPGQAPRLLIYKVSNRFSGVPDRFSGSGSGTDFTLKISRVEAEDVGVYYCGQGTQVPYTFGQGTKLEIK
1.19 | CE115HA000 S62K (antibody, name in Kabat numbering, V domains shown) VH: QVQLVESGGGVVQPGRSLRLSCAASGFTFSNAWMHWVRQAPGKGLEWVAQIKAKSNNYATYYAEKVKGRFTISRDDSKNSLYLQMNSLKTEDTAVYYCRYVHYGAYYGVDAWGQGTTVTVSS VL: DIVMTQSPLSLPVTPGEPASISCRSSQSLVHSNRNTYLHWYQQKPGQAPRLLIYKVSNRFSGVPDRFSGSGSGTDFTLKISRVEAEDVGVYYCGQGTQVPYTFGQGTKLEIK
0.91 | CE115HA000 S74P (antibody, name in Kabat numbering, V domains shown) VH: QVQLVESGGGVVQPGRSLRLSCAASGFTFSNAWMHWVRQAPGKGLEWVAQIKAKSNNYATYYAESVKGRFTISRDDPKNSLYLQMNSLKTEDTAVYYCRYVHYGAYYGVDAWGQGTTVTVSS VL: DIVMTQSPLSLPVTPGEPASISCRSSQSLVHSNRNTYLHWYQQKPGQAPRLLIYKVSNRFSGVPDRFSGSGSGTDFTLKISRVEAEDVGVYYCGQGTQVPYTFGQGTKLEIK
0.56 | CE115HA000 T28D (antibody, name in Kabat numbering, V domains shown) VH: QVQLVESGGGVVQPGRSLRLSCAASGFDFSNAWMHWVRQAPGKGLEWVAQIKAKSNNYATYYAESVKGRFTISRDDSKNSLYLQMNSLKTEDTAVYYCRYVHYGAYYGVDAWGQGTTVTVSS VL: DIVMTQSPLSLPVTPGEPASISCRSSQSLVHSNRNTYLHWYQQKPGQAPRLLIYKVSNRFSGVPDRFSGSGSGTDFTLKISRVEAEDVGVYYCGQGTQVPYTFGQGTKLEIK
0.9 | CE115HA000 S77T (antibody, name in Kabat numbering, V domains shown) VH: QVQLVESGGGVVQPGRSLRLSCAASGFTFSNAWMHWVRQAPGKGLEWVAQIKAKSNNYATYYAESVKGRFTISRDDSKNTLYLQMNSLKTEDTAVYYCRYVHYGAYYGVDAWGQGTTVTVSS VL: DIVMTQSPLSLPVTPGEPASISCRSSQSLVHSNRNTYLHWYQQKPGQAPRLLIYKVSNRFSGVPDRFSGSGSGTDFTLKISRVEAEDVGVYYCGQGTQVPYTFGQGTKLEIK
